For 5 molecules, cAMP accumulation in A7r5 rat aortic smooth muscle cells, EC50 and Ki results are on record in patent US20040143095A1.

Where no end group is shown, it is not given here.

Chain of endogenous CRF-R2β of A7r5 rat aortic smooth muscle cells (rat), P47866 (P47866 20-411): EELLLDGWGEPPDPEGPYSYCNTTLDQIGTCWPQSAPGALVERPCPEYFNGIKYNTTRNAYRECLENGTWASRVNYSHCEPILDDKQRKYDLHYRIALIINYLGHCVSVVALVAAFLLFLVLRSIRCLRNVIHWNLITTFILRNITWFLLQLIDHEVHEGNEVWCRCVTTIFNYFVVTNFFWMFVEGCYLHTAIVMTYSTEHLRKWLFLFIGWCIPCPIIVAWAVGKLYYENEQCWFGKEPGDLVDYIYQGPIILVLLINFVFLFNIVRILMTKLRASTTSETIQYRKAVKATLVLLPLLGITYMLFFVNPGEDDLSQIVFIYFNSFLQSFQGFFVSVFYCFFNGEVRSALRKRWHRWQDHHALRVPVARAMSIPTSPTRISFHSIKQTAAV

One assay addresses endogenous CRF-R2β of A7r5 rat aortic smooth muscle cells (rat), P47866. Put plainly: cell-based or functional assay.
The molecule VILSLDVPIGLLRILLEQARYKAARNQAATNAQILAHV (peptide, UniProt Q99ML8 73-110, looked up) [Urocortin II (mouse), Q99ML8 73-110] returned a cAMP accumulation in A7r5 rat aortic smooth muscle cells, EC50 of 0.18 nM.

With FTLSLDVPTNIMNLLFNIAKAKNLRAQAAANAHLMAQI-NH2 [Urocortin III (human)], the cAMP accumulation in A7r5 rat aortic smooth muscle cells, EC50 came to 80.9 nM.

In the case of FTLSLDVPTNIMNILFNIDKAKNLRAKAAANAQLMAQI-NH2 [Urocortin III (mouse)], the cAMP accumulation in A7r5 rat aortic smooth muscle cells, EC50 came out at 3.7 nM.

Another assay deals with rat CRF receptor type 2α (rat) (UniProt P47866). Put plainly: radioligand displacement ([125I-Tyr0,Glu1,Nle17]-sauvagine), CHO membranes.
Chain of rat CRF receptor type 2α (rat) (P47866 20-411): as the sequence (P47866 20-411) above
For VILSLDVPIGLLRILLEQARYKAARNQAATNAQILAHV (peptide, UniProt Q99ML8 73-110, looked up) [Urocortin II (mouse)], the Ki was 2.1 nM.

Turning to IVLSLDVPIGLLQILLEQARARAAREQATTNARILARV (peptide, UniProt Q96RP3 72-109, looked up) [Urocortin II (human)], the Ki was found to be 1.7 nM.

Regarding FTLSLDVPTNIMNLLFNIAKAKNLRAQAAANAHLMAQI-NH2 [Urocortin III (human)], the Ki was found to be 21.7 nM.

FTLSLDVPTNIMNILFNIDKAKNLRAKAAANAQLMAQI-NH2 [Urocortin III (mouse)]: the Ki was found to be 5 nM. Against the preceding molecule, the Ki is about 4.3-fold lower.

The next assay deals with mouse CRF receptor type 2β (mouse) (UniProt Q60748). The assay is described as above.
Take VILSLDVPIGLLRILLEQARYKAARNQAATNAQILAHV (peptide, UniProt Q99ML8 73-110, looked up) [Urocortin II (mouse)]: the Ki is 0.66 nM.

In turn, IVLSLDVPIGLLQILLEQARARAAREQATTNARILARV (peptide, UniProt Q96RP3 72-109, looked up) [Urocortin II (human)] displayed a Ki of 0.5 nM.

As to FTLSLDVPTNIMNLLFNIAKAKNLRAQAAANAHLMAQI-NH2 [Urocortin III (human)], the Ki stood at 13.5 nM.

Take FTLSLDVPTNIMNILFNIDKAKNLRAKAAANAQLMAQI-NH2 [Urocortin III (mouse)]: the Ki was found to be 1.8 nM. Compared with the last molecule, the Ki is about 7.5-fold lower.

As usually defined, the Ki is a dissociation constant, usually derived from enzyme kinetics or from competition with a known ligand. Higher therefore signals a looser hold on the target.
